Data from patent US12091453B2, “Epitope specific to SMO protein, antibody recognizing same, and composition comprising same” (HEDGEHOG, INC., priority 2018, dated 2024).
Where a chain is given by its changes, count along the chain named. “Also recorded” adds a separate entry of the source.

B1: humanized SMO antibody No. 7: humanized SMO antibody, VH SEQ ID NO: 23 and VL SEQ ID NO: 28 (antibody, V domains shown)
VH: QVQLVQSGAEVKKPGASVKVSCKASGYTFTEYTMHWVRQAPGQRLEWMGGINPNTGDTRYNQKFKGRVTITVDKSASTAYMELSSLRSEDTAVYYCARDYYGSPFVYWGQGTLVTVSS
VL: DIVMTQSPLSLPVTPGEPASISCRSSQSIVHSSGYTFLDWYLQKPGQSPQLLIYKVSNRFSGVPDRFSGSGSGTDFTLKISRVEAEDVGVYYCFQGSHVPLTFGGGTKVEIK
modifications: huSM01-21-07 VH; huSM01-21-07 VL
B2: humanized SMO antibody No. 17: humanized SMO antibody, VH SEQ ID NO: 26 and VL SEQ ID NO: 29 (antibody, V domains shown)
VH: B1 VH with Q1E, S17T, V20I, A24V, R38Q, Q43K, R44G, A76T, S77D
VL: DIQMTQSPSSLSASVGDRVTITCRSSQSIVHSSGYTFLDWYQQKPGKAPKLLIYKVSNRFSGVPSRFSGSGSGTDFTLTISSLQPEDFATYYCFQGSHVPLTFGQGTKVEIK
modifications: huSM01-21-17 VH; huSM01-21-15 VL
B3: humanized SMO antibody No. 15: humanized SMO antibody, VH SEQ ID NO: 24 and VL SEQ ID NO: 29 (antibody, V domains shown)
VH: B1 VH
VL: B2 VL
modifications: huSM01-21-15 VH; huSM01-21-15 VL
B4: humanized SMO antibody No. 16: humanized SMO antibody, VH SEQ ID NO: 25 and VL SEQ ID NO: 29 (antibody, V domains shown)
VH: B1 VH with R44G, I70M, A76T, A79V
VL: B2 VL
modifications: huSM01-21-16 VH; huSM01-21-15 VL

system: SHH-induced GLI transcriptional activity; experiment: NIH3T3-GLI reporter assay, humanized SMO antibodies; format: cell-based; details: NIH3T3-GLI cells, Sonic hedgehog peptide 15 h, 10 and 20 μg/ml antibody 6 h
Protocol: GLI Repoter-NIH3T3 cell line was purchased from BPS Bioscience (CA, USA).
After NIH3T3-GLI cells having GLI transcriptional activity were plated in a 96-well plate at a density of 1×10^4 cells/cm^2, 2% BCS was treated with Sonic hedgehog peptide. Following 15 h, the cells were treated with different concentrations (10 and 20 μg/ml) of each of humanized antibody Nos. 5 (Production Example 6), 7 (Production Example 7), 15 (Production Example 8), 16 (Production Example 9), and 17 (Production Example 10) for 6 h. GLI1 Reporter activity (%) was measured through luminescence using a Reporter assay kit (Promega, WI, USA). The above procedure was repeated except that the SMO small-molecule inhibitor vismodegib or erismodegib was used as a positive control instead of the inventive SMO antibody.

Row | Molecule | transcriptional activity of GLI (GLI1 Reporter activity)
1 | B1 | significantly inhibited the transcriptional activity of GLI; also recorded: effectively inhibit the SHH-induced GLI transcriptional activity
2 | B2 | significantly inhibited the transcriptional activity of GLI; also recorded: effectively inhibit the SHH-induced GLI transcriptional activity
3 | B3 | significantly inhibited the transcriptional activity of GLI; also recorded: effectively inhibit the SHH-induced GLI transcriptional activity
4 | B4 | significantly inhibited the transcriptional activity of GLI; also recorded: effectively inhibit the SHH-induced GLI transcriptional activity

system: HCT116 cell line; experiment: Transwell migration assay; format: cell-based; details: HCT116, 10 μg/ml, 48 h
Protocol: After HCT116 cell line was plated in a transwell, each of humanized SMO antibody Nos. 7, 15, 16, and 17 was added at a concentration of 10 μg/ml. Following 48 h, cell motility was measured using a Diff-Quik kit.

Row | Molecule | cell motility | cell motility compared to treatment with vismodegib or erismodegib (positive control)
5 | B1 | reduction in cell motility | –
6 | B2 | reduction in cell motility; also recorded: highest activities to reduce cell mobility | significantly inhibited cell motility
7 | B3 | reduction in cell motility | –
8 | B4 | reduction in cell motility; also recorded: highest activities to reduce cell mobility | significantly inhibited cell motility

system: SMO; experiment: Western blotting of HCT116 cell line treated with humanized SMO antibodies; format: cell-based; details: HCT116, 10 and 20 μg/ml, serum free media
Protocol: (§1) HCT116 cell line was purchased from the Korean Cell Line Bank. 24 h after cells were plated in a […] at a density of 5×10^5 cells/cm^2, they were treated with different concentrations (10 and 20 μg/ml) of each of humanized SMO antibody Nos. 5, 7, 15, 16, and 17 in serum free media.
(§2) Cells were disrupted by a combination of mechanical homogenization and sonication in a lysis buffer (7 M urea, 2 M thiourea, 4% CHAPS, 40 mM Tris, 100 mM DTT) supplemented with protease, followed by centrifugation at 15,000 rpm and 4° C. for 20 min. Proteins in the supernatant were quantified with NanoDrop by bicinchoninic acid (BCA) assay.
(§3) 30 μg of the proteins isolated from the collected tissues were subjected to electrophoresis, transferred to a PVDF membrane, labeled with anti-GLI1 antibody (cell signaling, MA, USA), anti-SMO antibody (Santa Cruz, CA, USA), and anti β-actin antibody as primary antibodies and an HRP-conjugated anti-rabbit antibody as a secondary antibody, and detected by chemiluminescence staining. The expression levels of SMO protein were measured by the enhanced chemiluminescence (ECL) method.

Row | Molecule | expression level of SMO protein
9 | B1 | reduce the expression levels
10 | B2 | reduce the expression levels
11 | B3 | reduce the expression levels
12 | B4 | reduce the expression levels

system: GLI1; experiment: as above; format: cell-based; details: HCT116, 10 and 20 μg/ml, serum free media
Protocol: as §1, §2, §3

Row | Molecule | expression level of GLI1 protein
13 | B1 | reduce the expression levels
14 | B2 | reduce the expression levels
15 | B3 | reduce the expression levels
16 | B4 | reduce the expression levels
